{"source": "patent US20180298083A1", "key": {"D167N (HIV-1)": {"target": "D167N (HIV-1)", "test": "gp120 capture ELISA"}, "D279A (HIV-1)": {"target": "D279A (HIV-1)", "test": "gp120 capture ELISA"}, "D368A (HIV-1)": {"target": "D368A (HIV-1)", "test": "gp120 capture ELISA"}, "D457A (HIV-1)": {"target": "D457A (HIV-1)", "test": "gp120 capture ELISA"}, "D474A (HIV-1)": {"target": "D474A (HIV-1)", "test": "gp120 capture ELISA"}, "E370A (HIV-1)": {"target": "E370A (HIV-1)", "test": "gp120 capture ELISA"}, "G366A (HIV-1)": {"target": "G366A (HIV-1)", "test": "gp120 capture ELISA"}, "G367A (HIV-1)": {"target": "G367A (HIV-1)", "test": "gp120 capture ELISA"}, "G471A (HIV-1)": {"target": "G471A (HIV-1)", "test": "gp120 capture ELISA"}, "G472A (HIV-1)": {"target": "G472A (HIV-1)", "test": "gp120 capture ELISA"}, "G473A (HIV-1)": {"target": "G473A (HIV-1)", "test": "gp120 capture ELISA"}, "I371A (HIV-1)": {"target": "I371A (HIV-1)", "test": "gp120 capture ELISA"}, "I467A (HIV-1)": {"target": "I467A (HIV-1)", "test": "gp120 capture ELISA"}, "K282A (HIV-1)": {"target": "K282A (HIV-1)", "test": "gp120 capture ELISA"}, "M373A (HIV-1)": {"target": "M373A (HIV-1)", "test": "gp120 capture ELISA"}, "M475A (HIV-1)": {"target": "M475A (HIV-1)", "test": "gp120 capture ELISA"}, "N197T (HIV-1)": {"target": "N197T (HIV-1)", "test": "gp120 capture ELISA"}, "N262A (HIV-1)": {"target": "N262A (HIV-1)", "test": "gp120 capture ELISA"}, "N280A (HIV-1)": {"target": "N280A (HIV-1)", "test": "gp120 capture ELISA"}, "N332A (HIV-1)": {"target": "N332A (HIV-1)", "test": "gp120 capture ELISA"}, "P369A (HIV-1)": {"target": "P369A (HIV-1)", "test": "gp120 capture ELISA"}, "R469A (HIV-1)": {"target": "R469A (HIV-1)", "test": "gp120 capture ELISA"}, "R476A (HIV-1)": {"target": "R476A (HIV-1)", "test": "gp120 capture ELISA"}, "S365A (HIV-1)": {"target": "S365A (HIV-1)", "test": "gp120 capture ELISA"}, "T283A (HIV-1)": {"target": "T283A (HIV-1)", "test": "gp120 capture ELISA"}, "V372A (HIV-1)": {"target": "V372A (HIV-1)", "test": "gp120 capture ELISA"}, "[1]": {"target": "HIV-1 YU2 gp120 (HIV-1 strain YU2) (UniProt P35961)", "test": "competition ELISA on gp120 YU2, unlabelled CD4-Ig against CD4Ig-biotin"}}}
{"substance": "CD4-Ig (from UniProt P01730 26-203) (Fc fusion)", "values": [{"measurement": "Binding affinity relative to WT (%)", "setting": "D167N (HIV-1)", "result": 58, "unit": "%"}, {"measurement": "Binding affinity relative to WT (%)", "setting": "D279A (HIV-1)", "result": 49, "unit": "%"}, {"measurement": "Binding affinity relative to WT (%)", "setting": "D368A (HIV-1)", "result": 5, "unit": "%"}, {"measurement": "Binding affinity relative to WT (%)", "setting": "D457A (HIV-1)", "result": 3, "unit": "%"}, {"measurement": "Binding affinity relative to WT (%)", "setting": "D474A (HIV-1)", "result": 45, "unit": "%"}, {"measurement": "Binding affinity relative to WT (%)", "setting": "E370A (HIV-1)", "result": 5, "unit": "%"}, {"measurement": "Binding affinity relative to WT (%)", "setting": "G366A (HIV-1)", "result": 7, "unit": "%"}, {"measurement": "Binding affinity relative to WT (%)", "setting": "G367A (HIV-1)", "result": 3, "unit": "%"}, {"measurement": "Binding affinity relative to WT (%)", "setting": "G471A (HIV-1)", "result": 141, "unit": "%"}, {"measurement": "Binding affinity relative to WT (%)", "setting": "G472A (HIV-1)", "result": 2, "unit": "%"}, {"measurement": "Binding affinity relative to WT (%)", "setting": "G473A (HIV-1)", "result": 0, "unit": "%"}, {"measurement": "Binding affinity relative to WT (%)", "setting": "I371A (HIV-1)", "result": 12, "unit": "%"}, {"measurement": "Binding affinity relative to WT (%)", "setting": "I467A (HIV-1)", "result": 115, "unit": "%"}, {"measurement": "Binding affinity relative to WT (%)", "setting": "K282A (HIV-1)", "result": 53, "unit": "%"}, {"measurement": "Binding affinity relative to WT (%)", "setting": "M373A (HIV-1)", "result": 91, "unit": "%"}, {"measurement": "Binding affinity relative to WT (%)", "setting": "M475A (HIV-1)", "result": 117, "unit": "%"}, {"measurement": "Binding affinity relative to WT (%)", "setting": "N197T (HIV-1)", "result": 25, "unit": "%"}, {"measurement": "Binding affinity relative to WT (%)", "setting": "N262A (HIV-1)", "result": 2, "unit": "%"}, {"measurement": "Binding affinity relative to WT (%)", "setting": "N280A (HIV-1)", "result": 75, "unit": "%"}, {"measurement": "Binding affinity relative to WT (%)", "setting": "N332A (HIV-1)", "result": 57, "unit": "%"}, {"measurement": "Binding affinity relative to WT (%)", "setting": "P369A (HIV-1)", "result": 54, "unit": "%"}, {"measurement": "Binding affinity relative to WT (%)", "setting": "R469A (HIV-1)", "result": 7, "unit": "%"}, {"measurement": "Binding affinity relative to WT (%)", "setting": "R476A (HIV-1)", "result": 79, "unit": "%"}, {"measurement": "Binding affinity relative to WT (%)", "setting": "S365A (HIV-1)", "result": 34, "unit": "%"}, {"measurement": "Binding affinity relative to WT (%)", "setting": "T283A (HIV-1)", "result": 55, "unit": "%"}, {"measurement": "Binding affinity relative to WT (%)", "setting": "V372A (HIV-1)", "result": 73, "unit": "%"}, {"measurement": "IC50 (read off the curve)", "setting": "[1]", "result": 0.06, "unit": "µg/mL"}]}
